Data taken from patent US20220242973A1 (Molecular Partners, published 2022).

T1: Recombinant human FAP (fibroblast activation protein) (human, UniProt Q12884 26-760)
T1 construct: Bought soluble recombinant protein; Chemically biotinylated for the HTRF screen; also called hFAP; biotinylated human FAP
T1 sequence (looked up): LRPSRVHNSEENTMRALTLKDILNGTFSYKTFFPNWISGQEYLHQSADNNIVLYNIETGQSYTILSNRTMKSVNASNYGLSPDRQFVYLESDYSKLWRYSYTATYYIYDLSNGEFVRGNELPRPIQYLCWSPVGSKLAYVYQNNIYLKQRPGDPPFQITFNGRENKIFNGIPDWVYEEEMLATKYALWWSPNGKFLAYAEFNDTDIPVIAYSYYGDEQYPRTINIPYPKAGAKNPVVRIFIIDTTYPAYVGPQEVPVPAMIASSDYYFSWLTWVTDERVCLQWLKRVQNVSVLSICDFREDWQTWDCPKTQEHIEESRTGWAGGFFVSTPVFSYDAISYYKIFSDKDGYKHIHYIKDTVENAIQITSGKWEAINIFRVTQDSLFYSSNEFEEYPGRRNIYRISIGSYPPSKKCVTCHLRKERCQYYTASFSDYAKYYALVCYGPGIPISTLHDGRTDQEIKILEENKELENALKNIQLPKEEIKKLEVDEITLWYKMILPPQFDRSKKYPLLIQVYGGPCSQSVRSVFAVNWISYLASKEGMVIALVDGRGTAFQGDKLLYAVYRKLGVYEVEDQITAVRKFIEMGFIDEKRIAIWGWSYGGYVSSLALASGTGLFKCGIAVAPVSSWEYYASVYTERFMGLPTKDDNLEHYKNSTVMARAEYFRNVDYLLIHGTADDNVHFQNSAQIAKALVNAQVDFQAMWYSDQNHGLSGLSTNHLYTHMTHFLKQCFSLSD

T2: Human FAP expressed on the cell surface (WI38, CHO-FAP1.9, U87MG cells) (human, UniProt Q12884 1-760)
T2 construct: whole, on cells; Endogenous on WI38 and U87MG cells; from a human FAP cDNA (OriGene) in CHO-FAP1.9 cells; also called hFAP; FAP+ cells
T2 sequence (looked up): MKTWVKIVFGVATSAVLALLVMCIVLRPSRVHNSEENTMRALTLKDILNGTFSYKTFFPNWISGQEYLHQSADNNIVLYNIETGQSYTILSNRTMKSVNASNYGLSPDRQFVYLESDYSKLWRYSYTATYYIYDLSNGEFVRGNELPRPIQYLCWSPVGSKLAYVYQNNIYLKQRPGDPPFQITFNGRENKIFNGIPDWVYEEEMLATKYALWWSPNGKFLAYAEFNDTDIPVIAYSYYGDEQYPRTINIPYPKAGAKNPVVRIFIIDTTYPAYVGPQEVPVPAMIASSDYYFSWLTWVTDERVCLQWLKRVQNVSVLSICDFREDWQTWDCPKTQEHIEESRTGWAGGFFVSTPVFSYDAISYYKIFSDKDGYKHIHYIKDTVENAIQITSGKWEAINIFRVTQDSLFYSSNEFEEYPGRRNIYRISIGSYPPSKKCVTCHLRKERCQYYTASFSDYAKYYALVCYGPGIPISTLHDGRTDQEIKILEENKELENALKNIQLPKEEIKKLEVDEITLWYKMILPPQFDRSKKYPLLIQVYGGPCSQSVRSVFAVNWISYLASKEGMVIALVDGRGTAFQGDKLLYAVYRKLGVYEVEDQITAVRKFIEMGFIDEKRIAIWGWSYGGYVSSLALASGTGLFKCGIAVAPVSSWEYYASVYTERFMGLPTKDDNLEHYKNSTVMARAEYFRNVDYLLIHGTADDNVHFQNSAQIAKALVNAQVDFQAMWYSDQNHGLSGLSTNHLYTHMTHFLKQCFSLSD


Experiments:
[1] = molecular target: T1, Recombinant human FAP (fibroblast …); assay: SPR (ProteOn), human FAP immobilized on GLC chip
Method: Briefly, human FAP was diluted in 10 mM Na-acetate pH 5.3 buffer and covalently immobilized on a GLC chip (BioRad) to a level of around 2000 resonance units (RU). The interaction of ankyrin repeat protein and hFAP was then measured by injecting 200 μl running buffer (PBS, pH 7.4 containing 0.005% Tween 20®) containing serial dilutions of ankyrin repeat proteins covering a concentration range between 30 nM and 0.5 nM (on-rate measurement), followed by a running buffer flow for at least 25 minutes at a constant flow rate of 100 μl/min (off-rate measurement). The regeneration was performed using 15 μl of 10 mM Glycine pH 2 followed by 15 μl of 124 mM H₃PO₄. The signals (i.e. resonance unit (RU) values) of the interspots and a reference injection (i.e. injection of running buffer only) were subtracted from the RU traces obtained after injection of ankyrin repeat protein (double-referencing). Based on the SPR traces obtained from the on-rate and off-rate measurements, the on- and off-rate of the corresponding ankyrin repeat protein—FAP interaction was determined.
Dissociation constants (KD) were calculated from the estimated on- and off-rates using standard procedures known to the person skilled in the art. […] Table 1 provides the KD values of some selected ankyrin repeat proteins as examples.

[2] = molecular target: T1, Recombinant human FAP (fibroblast …); assay: cell-based or functional assay
[3] = molecular target: T2, Human FAP expressed on the cell surface …; assay: FACS on FAP-expressing WI38 cells, Penta-His AF647 detection
Method: Using multi-well plates, 20,000 WI38 cells were added per well in 50 μl of PBS. 50 μl of appropriate dilutions (2× dilution steps) of ankyrin repeat protein was then added to the cells and incubated for 30 minutes on ice. After the ankyrin repeat protein-binding reaction, cells were washed twice with PBS. Direct immunofluorescent detection of the His-tagged ankyrin repeat proteins using Penta-His AF647 conjugate (QIAgen) and determination of live cells using LIVE/DEAD™ Fixable Green Dead Cell Stain Kit (ThermoFisher) were then performed together in one step. The Penta-His AF647 conjugate and the LIVE/DEAD™ Fixable Green dye were applied to the cells together in 1/200 (Penta-His) and 1/1000 (LID Fixable) final dilutions and incubated for 20-30 minutes on ice. After washing the cells with PBS, cells were re-suspended in 1× CellFix™ buffer (BD Biosciences) (10× stock was diluted 1/10 in water). The samples were incubated in CellFix™ buffer for 15-20 minutes at RT, then spun down at 400 g for 5 min. Supernatant was discarded and cells were re-suspended in 200 μl PBS and stored at 4° C. until acquisition and FACS analysis. Acquisition and FACS analysis, including the determination of median fluorescence intensity (MFI), were done within 5 days after staining using an AttuneNxT instrument. Binding curves were fitted by non-linear regression curve fitting using GraphPad Prism software (v 7.0.4).
EC₅₀ values were determined using standard procedures known to the person skilled in the art. […] Table 2 provides the EC₅₀ values of selected ankyrin repeat proteins as examples.

Row | Binder | Kd [1] | FAP activity (%) [2] | EC50 [3]
1 | DARPin® protein #2 (designed binder) MRGSHHHHHHGSYPYDVPDYAGSDLGKKLLEAARAGQDDEVRILLAAGADINAKDKYGVTPLHLAAWAGHLEIVEVLLKAGADVNAKDQSGFTPLHLAAHRGHLEIVEVLLKAGADVNAKDYRGFTPLHLAAEDGHLEIVEVLLKAGADVNAQDKSGKTPADLAADAGHEDIAEVLQKLN | 8.24 nM | 117% | 5.26 nM
2 | DARPin® protein #3 (designed binder) MRGSHHHHHHGSYPYDVPDYAGSDMGKKLLEAARAGQDDEVRILMANGADVNAFDQVGRTPLHLDALAGHLEIVEVLLKHGADVNAADMFGITPLHLAAFIGHLEIVEVLLKHGADVNAYDLDGRTPLHPAAYHGHLEIVEVLLKNGADVNAQDKFGKTAFDISIDNGNEDLAEILQKLN | 5.43 nM | 116% | 5.72 nM
3 | DARPin® protein #7 (designed binder) MRGSHHHHHHGSYPYDVPDYAGSDLGKKLLEAARAGQDDEVRELLKAGADVNAKDEWGKTPLHLAAALGHLEIVEVLLKAGADVNAKDAWGATPLHVAAFAGHLEIVEVLLKAGADVNAKDTIGFTPLHLAAHSGHLEIVEVLLKAGADVNAQDKSGKTPADLAADAGHEDIVEVLQKLN | 0.744 nM | 123% | 1.45 nM
4 | DARPin® protein #14 (designed binder) MRGSHHHHHHGSYPYDVPDYAGSDLGKKLLEAARAGQDDEVRILLAAGADVNAKDYSGRTPLHLAALTGHLEIVKVLLKHGADVNASDDYGITPLHLDAFIGHLEIVEVLLKNGADVNAMDYQGRTPLHPAAYTGHLEIVEVLLKYGADVNAQDKFGKTAFDISIDNGNEDLAEILQKLN | 0.007 nM | 86% | 0.246 nM
5 | DARPin® protein #22 (designed binder) MRGSHHHHHHGSYPYDVPDYAGSDLGDKLLTAANYGQDDEVRILLAAGADVNAKDRFGHTPLHVAAHFGHLEIVEVLLKAGADVNAKDSLGHTPLHLAAEAGHLEIVEVLLKAGADVNAQDFHGITPADLAAHQGHEDIAEVLQKLN | 3.4 nM | 100% | 1.22 nM

Second part, the binder after the results:

Row | Kd [1] | FAP activity (%) [2] | EC50 [3] | Binder
6 | 0.441 nM | 110% | 0.664 nM | DARPin® protein #27 (designed binder) MRGSHHHHHHGSYPYDVPDYAGSDLGKKLLEAARAGQDDEVRELLKAGADVNAKDEWDKTPLHYAAALGHLEIVEVLLKAGADVNAKDVWGATPLHIAAFAGHLEIVEVLLKAGADVNAKDTLGYTPLHLAATRGHLEIVEALLKAGADVNAQDKSGKTPADLAADVGHEDIAEVLQKLN
7 | 0.527 nM | 138% | 0.918 nM | DARPin® protein #32 (designed binder) MRGSHHHHHHGSYPYDVPDYAGSDLGKKLLEAARAGQDDEVRELLKAGADVNAKDEWDKTPLHLAAALDHLEIVEVLLKAGADVNAKDQYGATPLHVAAFAGHLEIVEVLLKAGADVNAKDLFGWTPLHLAALRGHLEIVEVLLKAGADVNAQDKSGKTPADLAADAGHEDIVEVLQKLN
8 | 0.15 nM | 103% | 0.781 nM | DARPin® protein #28 (designed binder) MRGSHHHHHHGSYPYDVPDYAGSDLGKKLLEAARAGQDDEVRELLKAGADVNAKDEWGKTPLHYAAALGHLEIVEVLLKAGADVNAKDRWGATPLHIAAFAGHLEIVEVLLKAGADVNAKDEVGWTPLHLAARSGHLEIVEVLLKVGADVNAQDKSGKTPADLAADAGHEDIVEVLQKLN
9 | 2.78 nM | 100% | 1.82 nM | DARPin® protein #23 (designed binder) MRGSHHHHHHGSYPYDVPDYAGSDLGLKLLSAAQVGQDDEVRILLAAGADVNVKDQFGHTPLHVATHFGHLEIVEVLLKAGADVNAKDALGHTPLHLAAEAGHLEIVEVLLKAGADVNAQDAHGRTPADLAAQLGHEDIAEVLQKLN
10 | 0.885 nM | 108% | 2.19 nM | DARPin® protein #21 (designed binder) MRGSHHHHHHGSYPYDVPDYAGSDLGQKLLNAAFIGQDDEVRILLAAGAGVNAKDRHGHTPLHVTAHHGHLEIVEVLLKAGTDVNAKDNQGNTPLHVAAEADHLEIVEVLLKAGADVNAQDAHGRTPADLAAQLGHEDIAEVLQKLN
11 | 0.255 nM | 109% | 1.13 nM | DARPin® protein #29 (designed binder) MRGSHHHHHHGSYPYDVPDYAGSDLGKKLLEAARAGQDDEVRELLKAGADVNAKDTIGRTPLHIAARYGHLEIVEVLLKAGADVNAKDVYDITPLHLAAFLGHLEIVEVLLKAGADVNAKDYEGTTPLHVAAWHGHLEIVEVLLKAGADVNAQDKSGKTPADLAADAGHEDIAEVLQKLN
12 | < 0.01 nM | 93% | 0.33 nM | DARPin® protein #15 (designed binder) MRGSHHHHHHGSYPYDVPDYAGSDLGKKLLEAARAGQDDEVRILMANGADVNAFDAIGRTPLHLAALYGHLEIVEVLLKHVADVNATDEYGITPLHLAAFMGHLEIVEVLLKYGADVNAIDFDGRTPLHPAAYRGHLEIVEVLLKHGADVNAQDKFGKTAFDISIDNGNEDLAEILQKLN
13 | 1.47 nM | 102% | 4.49 nM | DARPin® protein #24 (designed binder) MRGSHHHHHHGSYPYDVPDYAGSDLGEKLLEAARRGQDDEVRELLKAGADVNAKDRYGITPLHLAAFLGHLEIVEVLLKDGADVNAKDEWGATPLHVAAYKGHLEIVEVLLKAGADVNAQDLYGKTPADLAAEQGHEDIEEVLQKLN
